Experiment [1] has as its target F. hepatica cathepsin L3 (Fasciola hepatica).
Experiment [2] shares this target. The experiment in a line: enzyme inhibition (fluorogenic peptide substrate); KT inhibitor (2 μM) incubated with each protease in 100 μl reaction buffer for 15 min at 37 °C, then fluorogenic substrate; inhibition constants by the Morrison equation for tight-binding inhibition.
Experiment [3] has as its target Bovine trypsin (bovine).
For experiment [4], the target named is Bovine trypsin (bovine). The experiment in a line: enzyme inhibition (fluorogenic peptide substrate); KT inhibitor (2 μM) incubated with each protease in 100 μl reaction buffer for 15 min at 37 °C, then fluorogenic substrate; inhibition constants by the Morrison equation for tight-binding inhibition.
The target in experiment [5] is F. hepatica cathepsin L1 (Fasciola hepatica). The experiment is described as above.
Experiment [6] has as its target F. hepatica cathepsin L2 (Fasciola hepatica). The description is as above.
Experiment [7] deals with Human cathepsin K (human) (UniProt P43235). The experiment is described as above.
In experiment [8] the target is Human cathepsin L (human). The experiment is described as above.

Chain of Human cathepsin K (human) (P43235 115-329): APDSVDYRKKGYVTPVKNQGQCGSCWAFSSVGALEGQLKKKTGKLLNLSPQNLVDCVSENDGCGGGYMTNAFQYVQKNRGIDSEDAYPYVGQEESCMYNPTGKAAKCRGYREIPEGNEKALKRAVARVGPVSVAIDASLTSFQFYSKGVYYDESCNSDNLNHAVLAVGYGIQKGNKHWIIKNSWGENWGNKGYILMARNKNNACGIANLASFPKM

As usually defined, the Ki is the equilibrium dissociation constant of an inhibitor or competing ligand from its target. A lower Ki goes with tighter binding. On to “Recombinant FhKT1.1 (Fasciola hepatica Kunitz-type inhibitor 1.1) (natural protein)”, for which, in experiment [1], the reduction of FhCL3 activity at 2 μM inhibitor (fluorogenic substrate) is 93.1%. In addition, the Ki in experiment [2] was 1.8 nM.
The substance rFhKT1.1Leu^15/Arg^15 (natural protein) yielded a Ki in experiment [2] of 3.6 nM.
In turn, “Recombinant FhKT1.3 (Fasciola hepatica Kunitz-type inhibitor 1.3) (natural protein)” registered a reduction in trypsin activity at 2 μM inhibitor (fluorogenic substrate) in the experiment with Bovine trypsin (bovine) [3] of 99.2%. Besides, the Ki with Bovine trypsin (bovine) [4] came out at 1.8 nM; in experiment [5], 0.6 nM; in experiment [6] it was 10.6 nM; in experiment [2] it was 3.2 nM; in experiment [7] it was 5.5 nM; in experiment [8], 2.6 nM.
With rFhKT1.1Arg^19/Ala^19 (natural protein), the Ki worked out at 4.2 nM in experiment [5]; 35 nM in experiment [6]; 32.8 nM in experiment [2]; 18.5 nM in experiment [7]; 0.3 nM in experiment [8].
